Article PMC9380774, “Mpe1 senses the binding of pre-mRNA and controls 3′ end processing by CPF” (Molecular Cell, 2022)

What was measured:
[1] = biological target: T1, polymerase module (Cft1-Pap1-Pfs2-Fip1-Yth1);Mpe1 (Saccharomyces cerevisiae;Saccharomyces …, UniProt Q06632;P29468;P42841;P45976;Q06102;P35728 1-1357;1-568;1-465;1-327;1-208;1-441, |); assay: size exclusion chromatography; 5 uM polymerase module, 15 uM Mpe1, 10 uM RNA; comigration, later elution; EMSA: SEC 50 buffer (composition not given in material), 50 nM FAM-RNA, 10% native PAGE 1X TBE, room temperature; SEC: Superose 6 Increase 3.2/300 in SEC 50; details: protein: recombinant;recombinant; tags: untagged (from polymerase module-Mpe1 purification); Pfs2-SII in some preparations;C-terminal SII; copies: 1;1;1;1;1;1; label: 5' 6-FAM; single strand
[2] = biological target: T1, polymerase module …; assay: cryo-EM; Zn2+; 2.66 A; EMSA: SEC 50 buffer (composition not given in material), 50 nM FAM-RNA, 10% native PAGE 1X TBE, room temperature; SEC: Superose 6 Increase 3.2/300 in SEC 50; details: protein: recombinant;recombinant; tags: untagged (from polymerase module-Mpe1 purification); Pfs2-SII in some preparations;C-terminal SII; copies: 1;1;1;1;1;1; single strand; 4 nt modelled
[3] = biological target: polymerase module (Cft1-Pap1-Pfs2-Fip1-Yth1);Mpe1;yPIM peptide of Cft2 (Saccharomyces cerevisiae;Saccharomyces …, UniProt Q06632;P29468;P42841;P45976;Q06102;P35728;Q12102 …, ||); assay: cryo-EM; Zn2+; 2.61 A; Cft2 yPIM peptide; EMSA: SEC 50 buffer (composition not given in material), 50 nM FAM-RNA, 10% native PAGE 1X TBE, room temperature; SEC: Superose 6 Increase 3.2/300 in SEC 50; details: tags: untagged (from polymerase module-Mpe1 purification); Pfs2-SII in some preparations;C-terminal SII;; copies: 1;1;2;1;1;1;1; single strand; 4 nt modelled

Binder | binding result [1] | binding result [2] | binding result [3]
UUUAUAGUUAUGUUAGUAUUAAGAACGUUAUUUAUAUUUCAA (ssRNA) [precleaved CYC1 (pcCYC1), 42 nt] | binds |  | 
UUUAUAGUUAUGUUAGUAUUAAGAACGUUAUUUAUAUUUCAA (ssRNA) [precleaved CYC1 used for cryo-EM (IDT FAM or T7 version not stated)] |  | binds | binds
